Measured values reported in the supplement of paper PMC12042874.
± gives the uncertainty stated by the source.

Test: amyloid nucleation score (Sup35N fusion, yeast selection) (log enrichment); library NNK1; higher = more nucleation; inactive = no reads after selection
In short: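 On medium lacking adenine and uracil, psi-negative yeast expressing peptides of 20 random codons fused to Sup35N were grown 7 days at 30°C after a 24-hour induction with 100 μM copper sulfate. Illumina sequencing of input and output plasmid inserts gave the reads, and sequences under 100 input reads were excluded. The nucleation score is the DiMSum log enrichment of output over input reads, centred on the mode score of non-aggregating sequences.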

## YYMRGTKRRIVRVYFWMLRC
  amyloid nucleation score: 1.59 ± 0.4

## GAVARIIDAVCVRLV
  amyloid nucleation score: -0.643 ± 1.1

## SIASIIRRFNWDTK
  amyloid nucleation score: 3.87 ± 0.095

## NPGEWYNSYRSNGEGMRLYE
  amyloid nucleation score: -0.288 ± 0.88

## VPYQCDKTKHFVRKVLILGA
  amyloid nucleation score: 1.81 ± 0.58

## FENIDLP
  amyloid nucleation score: -0.364 ± 0.62

## YGVCT
  amyloid nucleation score: 0.49 ± 0.22

## HEVWH
  amyloid nucleation score: -0.379 ± 0.55

## KCTVDQTSNIAACTSVGLCI
  amyloid nucleation score: 5.36 ± 0.093

## TFTLNFCGLQF
  amyloid nucleation score: 7.124 ± 0.059

## IENGLYMSLYLGNQRI
  amyloid nucleation score: 1.47 ± 0.29

## VIKDFNDNYTGFRHYSKILI
  amyloid nucleation score: -0.634 ± 1.7

## CVCLRGDKGPLSRLRLRSSS
  amyloid nucleation score: 0.254 ± 1

## WAYVAALRGYCYVGGRYLYT
  amyloid nucleation score: -0.91 ± 1.2

## EYIYNIAEWVD
  amyloid nucleation score: -1.05 ± 0.79

## LWLRCLSIAAGIHQ
  amyloid nucleation score: 2.31 ± 0.12

## DCESVWSIKGNKPMLFDRIL
  amyloid nucleation score: -1.45 ± 1.7

## NLVYTTDT
  amyloid nucleation score: 0.467 ± 0.41

## WRGGKRHVAIFSISYSGTN
  amyloid nucleation score: 0.9 ± 0.57

## SYRGVRIGSGGLMYRGANSF
  amyloid nucleation score: inactive

## SLSAPLNTLVFVVYIQWWEM
  amyloid nucleation score: 0.321 ± 0.71

## AKEVLYFR
  amyloid nucleation score: 0.505 ± 0.24

## WPGFLSRWIRLRLDWSHEV
  amyloid nucleation score: -1.06 ± 1.1

## PWYTRLRRK
  amyloid nucleation score: -0.338 ± 1.4

## VFLSIGTERMILLIVWHCLN
  amyloid nucleation score: -0.34 ± 0.57

## LCCYAVYGLCLMHTYNWGCD
  amyloid nucleation score: 0.564 ± 0.73

## HMLGKASGVLFNQRAVTGG
  amyloid nucleation score: 0.696 ± 0.79

## FNLISGKIGYRLLQTCIMMM
  amyloid nucleation score: -0.963 ± 0.51

## VVSSRSIMGTVRMNEKVVAT
  amyloid nucleation score: -0.563 ± 0.46

## FTIIFSTYISMVVVDLRVVP
  amyloid nucleation score: -0.409 ± 0.36

## KFWTGPIRYVN
  amyloid nucleation score: -0.149 ± 0.31

## NGADTSSQAF
  amyloid nucleation score: -0.182 ± 1.3

## VAITCLKIANGDRGVLQTLC
  amyloid nucleation score: 0.264 ± 0.86

## KKFFKYELFEVCIFLGYRCS
  amyloid nucleation score: 0.493 ± 1.2

## VFTIWSMFFIVRFNLWWKCA
  amyloid nucleation score: 0.081 ± 0.49

## VKKLQVA
  amyloid nucleation score: 1.11 ± 0.74

## YYNFCMDRRLLDNGTNGSKS
  amyloid nucleation score: -0.016 ± 1.7

## AWGRDYEELSSPLGMKALTW
  amyloid nucleation score: 0.381 ± 0.31

## GYENGDGDERD
  amyloid nucleation score: -0.403 ± 1.2

## AIVSGRTFDKPNMKRCL
  amyloid nucleation score: -1.44 ± 0.69

## WSKTSDDSVWWTWTDGIMFV
  amyloid nucleation score: 1.92 ± 0.46

## YFMFSLCSYSNYWLRWGFV
  amyloid nucleation score: 0.121 ± 0.22

## TTMIRSYFREDYGQGPLMSW
  amyloid nucleation score: 0.51 ± 1.2

## TFLTCYRPGPIDNSWRIVSM
  amyloid nucleation score: 1.1 ± 0.41

## GISGLVLSYGADSGPGTWGK
  amyloid nucleation score: -0.63 ± 0.42

## YWRKLQYRMAGN
  amyloid nucleation score: 0.265 ± 0.64

## YILNGVPVKAFFLGYGADYS
  amyloid nucleation score: -0.979 ± 1.3

## GVYSGVVSRSL
  amyloid nucleation score: -0.21 ± 0.34

## CIIDKFGVLIV
  amyloid nucleation score: inactive

## GDDVRRPVVSVHNSRGYSFG
  amyloid nucleation score: -0.235 ± 0.32

## QTHEYGLPRMIR
  amyloid nucleation score: 0.884 ± 0.69

## NLVVQCADGVILSFWDHMVG
  amyloid nucleation score: 2.43 ± 0.32

## AYETLR
  amyloid nucleation score: -0.385 ± 0.59

## IAAYLVVDILPGSI
  amyloid nucleation score: -0.036 ± 0.6

## FKLMWNFQDLLVLLLRDRRY
  amyloid nucleation score: 0.048 ± 0.62

## RFLVFC
  amyloid nucleation score: inactive

## YTQFYVLESIYRTTLCP
  amyloid nucleation score: 0.554 ± 0.58

## MNTLYCWGKCGLVTSLVGLI
  amyloid nucleation score: 0.059 ± 0.73

## EIVACSWKKELIRAW
  amyloid nucleation score: -0.209 ± 0.38

## ACVMRIDAFFMTISVRLLRL
  amyloid nucleation score: 1.79 ± 0.3

## ALRRIGSFVVHLDIRAVSQT
  amyloid nucleation score: 1.09 ± 0.5

## YSYNRSIASFFYFMSYCVSL
  amyloid nucleation score: inactive

## CTVMHELCCRWFELFRRSVR
  amyloid nucleation score: 1.45 ± 0.63

## IYAYAIDSFRSLVFFVFMFG
  amyloid nucleation score: inactive

## MITWMYASWYNRPVLVYQFW
  amyloid nucleation score: 0.233 ± 0.28

## KSGTAFLFFKMI
  amyloid nucleation score: 0.399 ± 0.31

## HKDVQGYVD
  amyloid nucleation score: 1.01 ± 0.97

## YWYNNAWASLWFQAWVDWYI
  amyloid nucleation score: 0.446 ± 0.33

## VNVFRNLFVTTDLWLSSTQN
  amyloid nucleation score: -0.437 ± 0.66

## DMKDDRRSFTKGP
  amyloid nucleation score: -0.103 ± 0.69

## KRRGSFKVLYSHSVGLYQSF
  amyloid nucleation score: 2.79 ± 0.14

## GQAWCTLTCRGTGPSQLGWV
  amyloid nucleation score: -0.508 ± 0.57

## CLNVYNLFMSLPGVAAPPMV
  amyloid nucleation score: 6.9 ± 0.085

## YPGFVCKVWIVVARKSFELE
  amyloid nucleation score: inactive

## TKILRP
  amyloid nucleation score: 0.33 ± 0.22

## FGSSPRSDVVKHQNINEEVI
  amyloid nucleation score: 0.581 ± 0.61

## MRTRWSIIMDVRYDNSV
  amyloid nucleation score: 1.55 ± 0.21

## SRPHTVWDMC
  amyloid nucleation score: 0.245 ± 0.32

## VCLLHNIVKGFARYINSHK
  amyloid nucleation score: 0.423 ± 0.5

## GVGIFAIYWFTMPHVRPRVI
  amyloid nucleation score: -1.13 ± 1

## NLSTCDE
  amyloid nucleation score: 1.03 ± 0.58

## PYYFEGGEAQTPRHSDGQWM
  amyloid nucleation score: -0.769 ± 0.56

## PAYRRCRPFFVHAHRFMGST
  amyloid nucleation score: 0.681 ± 0.44

## NFFDLLYFL
  amyloid nucleation score: 0.175 ± 0.82

## CLLHEASCGWFFGWFVRHT
  amyloid nucleation score: 0.989 ± 0.28

## VTVLSSVLIL
  amyloid nucleation score: 0.332 ± 0.27

## GCDYARPINWCDTPYGSFNL
  amyloid nucleation score: -2.49 ± 2.4
